Measurements taken from patent publication US20200188539A1 (CURATORS OF THE UNIVERSITY OF MISSOURI, published 2020).
Square brackets hold non-standard residues; d marks the D form. * marks the point of attachment. DUPA = PSMA-binding small-molecule urea, O=C(O)CC[C@H](NC(=O)N[C@@H](CCC(=O)*)C(=O)O)C(=O)O; DOTA = O=C(O)CN1CCN(CC(=O)O)CCN(CC(=O)*)CCN(CC(=O)O)CC1; Sta = CC(C)C[C@H](N)[C@@H](O)CC(=O)O; 4Abz = Nc1ccc(C(=O)O)cc1; Ahx = NCCCCCC(=O)O; Ava = NCCCCC(=O)O

B1: [DUPA-6-Ahx-[^natIn-DOTA-AMBA-RM2] (peptide)
peptide: {DUPA-Ahx}-K(DOTA)[4Abz][dF]QWAVGH[Sta]L-NH2
modifications: also: DOTA complexed with natural indium
B2: [DUPA-6-Ahx-[DOTA]-5-Ava-RM2] (peptide)
peptide: {DUPA-Ahx}-K(DOTA)[Ava][dF]QWAVGH[Sta]L-NH2
notes: Unmetallated bivalent conjugate; also called [DUPA-6-Ahx-Lys[DOTA]-X-RM2], X=5-Ava; [DUPA-6-Ahx-Lys(DOTA)-X-RM2] formula (I), X=5-aminovaleric acid
B3: [DUPA-6-Ahx-Lys(DOTA)-6-Ahx-RM2] (peptide)
peptide: {DUPA-Ahx}-K(DOTA)[Ahx][dF]QWAVGH[Sta]L-NH2
SMILES: CC(C)C[C@H](NC(=O)C[C@H](O)[C@H](CC(C)C)NC(=O)[C@H](Cc1c[nH]cn1)NC(=O)CNC(=O)[C@@H](NC(=O)[C@H](C)NC(=O)[C@H](Cc1c[nH]c2ccccc12)NC(=O)[C@H](CCC(N)=O)NC(=O)[C@@H](Cc1ccccc1)NC(=O)CCCCCNC(=O)[C@H](CCCCNC(=O)CN1CCN(CC(=O)O)CCN(CC(=O)O)CCN(CC(=O)O)CC1)NC(=O)CCCCCNC(=O)CC[C@H](NC(=O)N[C@@H](CCC(=O)O)C(=O)O)C(=O)O)C(C)C)C(N)=O
notes: Unmetallated bivalent conjugate; also called [DUPA-6-Ahx-[DOTA]-6-Ahx-RM2]; [DUPA-6-Ahx-Lys[DOTA]-X-RM2], X=6-Ahx
B4: [DUPA-6-Ahx-[^natIn-DOTA]-5-Ava- RM2] (peptide)
peptide: {DUPA-Ahx}-K(DOTA)[Ava][dF]QWAVGH[Sta]L-NH2
modifications: also: DOTA complexed with natural indium
B5: [DUPA-6-Ahx-[DOTA]-AMBA-RM2] (peptide)
peptide: {DUPA-Ahx}-K(DOTA)[4Abz][dF]QWAVGH[Sta]L-NH2
notes: Unmetallated bivalent conjugate; also called [DUPA-6-Ahx-Lys[DOTA]-X-RM2], X=AMBA

What was measured:
[1] = biological target: prostate specific membrane antigen (human (human prostate LNCaP cells), UniProt Q04609 1-750); assay: cell-based or functional assay
Sequence of prostate specific membrane antigen (Q04609 whole entry): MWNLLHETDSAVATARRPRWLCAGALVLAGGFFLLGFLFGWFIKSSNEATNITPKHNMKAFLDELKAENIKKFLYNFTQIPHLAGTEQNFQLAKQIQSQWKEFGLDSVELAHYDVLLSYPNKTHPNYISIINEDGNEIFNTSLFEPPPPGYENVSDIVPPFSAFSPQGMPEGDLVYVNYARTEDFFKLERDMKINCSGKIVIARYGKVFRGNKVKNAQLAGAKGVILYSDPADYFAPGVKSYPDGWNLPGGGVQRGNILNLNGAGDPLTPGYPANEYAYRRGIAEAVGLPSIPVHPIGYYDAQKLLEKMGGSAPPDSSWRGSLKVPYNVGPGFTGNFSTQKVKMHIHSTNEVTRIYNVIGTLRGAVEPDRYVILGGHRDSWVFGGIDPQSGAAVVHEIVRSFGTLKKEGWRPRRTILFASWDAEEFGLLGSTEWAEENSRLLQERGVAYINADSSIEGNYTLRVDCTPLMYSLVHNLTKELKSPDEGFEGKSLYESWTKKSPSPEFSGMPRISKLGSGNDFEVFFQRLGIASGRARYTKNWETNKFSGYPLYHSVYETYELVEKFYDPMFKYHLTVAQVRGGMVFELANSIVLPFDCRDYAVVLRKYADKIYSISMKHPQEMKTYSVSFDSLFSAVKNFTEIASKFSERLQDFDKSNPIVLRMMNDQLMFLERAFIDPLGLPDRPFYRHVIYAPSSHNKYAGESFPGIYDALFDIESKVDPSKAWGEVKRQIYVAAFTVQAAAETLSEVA

[2] = biological target: T1, gastrin-releasing peptide receptor (human (human prostate PC-3 cells), UniProt P30550 1-384); assay: competitive displacement of 125I-(Tyr4)-BBN on GRPR-positive PC-3 cells
T1 construct: whole, on cells; Endogenous receptor on PC-3 cells; also called GRPR; GRPr
T1 sequence (P30550 whole entry): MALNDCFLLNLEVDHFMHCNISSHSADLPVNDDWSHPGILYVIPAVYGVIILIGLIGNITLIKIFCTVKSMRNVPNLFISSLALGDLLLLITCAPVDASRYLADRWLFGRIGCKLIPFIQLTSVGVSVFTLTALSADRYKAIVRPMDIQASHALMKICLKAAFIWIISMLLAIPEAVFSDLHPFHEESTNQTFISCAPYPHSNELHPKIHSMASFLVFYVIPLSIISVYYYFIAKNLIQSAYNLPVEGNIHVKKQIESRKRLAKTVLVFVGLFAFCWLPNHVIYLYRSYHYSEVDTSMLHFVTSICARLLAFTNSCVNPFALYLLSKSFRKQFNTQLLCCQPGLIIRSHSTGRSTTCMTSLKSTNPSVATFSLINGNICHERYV
Protocol: (§1) (NAAG) as the radioligands. For the GRPR-positive assay, 3×10⁴ PC-3 cells (in D-MEM/F-12 K media containing 0.01 M MEM and 2% BSA, pH=5.5) were incubated with 20,000 counts per minute of [¹²⁵I-(Tyr4)-BBN] and increasing concentrations (1×10⁻¹³-1×10⁻⁵ M) of the metallated targeting vector (1 h, 37° C., 5% CO₂-enriched atmosphere). After incubation, the reaction medium was aspirated and the cells were rinsed three times with cold media. Cell-associated radioactivity was determined using a Packard Riastar gamma counter. The percent of bound radioligand was plotted against the increasing concentrations of the metallated conjugate to determine the IC₅₀ value. IC₅₀ values were determined by curve fitting using Prism Software (version 6.0). For the PSMA-positive assay, the binding affinity was measured using the N-acetylated-α-linked acidic dipeptidase (NAALADase) assay. […] (increasing concentrations 1×10⁻¹³-1×10⁻⁵ M) in 50 μL of Tris-HCl buffer (50 mM, pH=7.4) were incubated with LNCaP tissue culture homogenized cell membranes for a period of 45 min. Then, [N-acetyl aspartyl ³H-glutamate] was added to the reaction mixture and the solution was allowed to incubate for an additional 15 min at 37° C. The enzymatic reaction was stopped by addition of 50 μL of cold sodium phosphate buffer (0.1 M, pH=7.4). [N-acetyl aspartyl ³H-glutamate] and [³H-glutamate] were resolved by cation exchange chromatography using AG 50 W-X8 columns (200-400 mesh). Columns were pre-equilibrated with 0.2 M HCl prior to loading of the reaction mixture. Fractions containing [³H-glutamate] were eluted using 6 mL of 2 M HCl. Scintillation cocktail was added to each fraction and the amount of radioactivity in each was determined by liquid scintillation counting. The percent of bound radioligand was plotted against the increasing concentrations of the conjugate to determine the IC₅₀ value. IC₅₀ values were determined by curve fitting using Prism Software (version 6.0).

[3] = biological target: T1, gastrin-releasing peptide receptor; assay: competitive displacement of 125I-[Tyr4]BBN on human prostate PC-3 cells (FIG. 2)
Protocol: as §1, with “6.0).” for “6.0). For the PSMA-positive assay, the binding affinity was measured using the N-acetylated-α-linked acidic dipeptidase (NAALADase) assay.”, “[N-acetyl aspartyl ³H-glutamate] and [³H-glutamate] were resolved by cation exchange chromatography using AG 50 W-X8 columns (200-400 mesh). Columns were pre-equilibrated with 0.2 M HCl prior to loading of the reaction mixture. Fractions containing [³H-glutamate] were eluted using 6 mL of 2 M HCl.” left out, “The percent of bound radioligand was plotted against the increasing concentrations of the conjugate to determine the IC₅₀ value.” left out

| Binder | IC50 LNCaP cells (NAALADase assay, [N-acetyl aspartyl 3H-glutamate] substrate, LNCaP homogenized cell membranes) [1] | IC50 [2] | IC50 [3] |
| --- | --- | --- | --- |
| B1 | 14.9 nM |  |  |
| B2 | 11.2 nM | 5.14 nM |  |
| B3 |  | 3.85 nM | 3.99 nM |
| B4 | 14.4 nM |  |  |
| B5 |  | 5.27 nM |  |
